Data reported in publication PMC6398482.

Target: Taxol-stabilised microtubules of Rhodamine-labelled tubulin (porcine) (UniProt P02550)
Assay: confocal microscopy of purified proteins; Taxol-stabilised MT seeds incubated with GFP–PLK4 (1 µM) for 15 min at 37°C, mounted on a slide; condensates associated with MTs counted (N=3, n=100 spots/condition)

B1: GFP-tagged Xenopus PLK4 (wild type) (enzyme)
chain: MAGSIGERREDFKVLNLLGKGSFACVYRAQSINTGIDVAIKMIDKKAMQKVGMVQRVRNEVEIHCQLKHPSILELYNYFEDSNYVYLILEMCHNGEVNRYLKNRKKPFAEDEARHFMHQIVTGMLYLHSHGILHRDLTLSNLLLSSDMNIKIADFGLATQLKMPNEKHFTMCGTPNYIAPEIATRSAHGLESDVWSLGCMLYTFLVGRPPFDTDTVKNTLNKIVLADYEMPDFVSREAKDLIFQLLRKNPADRLSLSSVLDHAFMTGFSNVQSKVMGAVEDSMDSGHATISTGFTGSSGVSISGRFQEKRILSGPSLPNKVNIFQFKDKHPTERSNGGSFHNTQRENNDFSEGNGRKPVACEDRPHSRYLRRAHSSDRSGTSQSQTYAKPSSYSERCHSVEMLAKPTHLKGYRTSSPPNSYGDIPQMFTDERSLERHTSPPVKEKTPSEFMGPAKQTAPRSNDKAETVQQWFGAMQLNGQFKNTPDTSSVSNMGGDFYSQQATQNGAPQYAWNDVKRKKNTDSSIESVLLGIKKNPGTGQRKAEKSQFGEQSKSRVPQQAFGSSTLRSIISPLNAERLKPIRQKTKNAVVSILESGEVCMEFLKEQNSQERVKEVLRISCDGNLIYVYHPNEGKGFPLVDRPPSPPENRLSYTFDSLPEKYWKKYQYAAKFIKLVRSKTPKVTYYTRYAKCMLMENSPTADVEVCFYDGAKIHKTSDVIRVIEKSGRSYTLEGSRLSTLSDEVRSYLDHANESHCVCLSLESAINTEEKKGENISLFPITFGRRPALAESPKTQPTPSVDSARERKEEQSYVNRVLHGSAASPPQMPNLNPSLISYDGSVFSATTVQPSPTSNIHNTPDHAQVLKSVFVENVGWASQLNSGAVWVQFNDGSQLVVQPGVSSIIYTAPNGQITRHGENDKLPEYIKSKLQCLSSILMLFASSSSR
Which percent of PLK4 condensates associated with MTs does the source give for B1 here?
Its percent of PLK4 condensates associated with MTs is 95.4%.
